Source: US20060259987A1 (UNIVERSITY OF UTAH RESEARCH FOUNDATION, published 2006)
Numbering of substitutions follows the chain as printed. Names may count otherwise.

T1: human neutrophil elastase (human, UniProt P08246 30-247, limits assumed)
T1 sequence (looked up): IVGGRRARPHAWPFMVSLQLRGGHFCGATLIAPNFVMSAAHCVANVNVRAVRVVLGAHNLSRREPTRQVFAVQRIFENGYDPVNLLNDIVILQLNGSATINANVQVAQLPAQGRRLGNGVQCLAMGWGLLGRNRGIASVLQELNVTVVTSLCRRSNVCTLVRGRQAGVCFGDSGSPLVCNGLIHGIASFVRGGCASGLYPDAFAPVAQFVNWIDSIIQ

T2: human neutrophil cathepsin G (human, UniProt P08311 21-244)
T2 sequence (looked up): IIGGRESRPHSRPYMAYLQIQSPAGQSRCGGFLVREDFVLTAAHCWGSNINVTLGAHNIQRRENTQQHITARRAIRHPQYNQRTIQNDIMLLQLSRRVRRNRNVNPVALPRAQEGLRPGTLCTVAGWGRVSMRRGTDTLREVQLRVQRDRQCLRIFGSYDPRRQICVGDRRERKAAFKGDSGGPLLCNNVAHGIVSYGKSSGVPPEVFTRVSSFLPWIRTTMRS

B1: 13C.432 (other)
chain: SPVDICTAKPRDIPMNPMCIYRSPEKKATEDEGSEQKIPEATNRRVWELSKANSRFATTFYQHLADSKNDNDNIFLSPLSISTAFAMTKLGACNDTLQQLMEVFKFDTISEKTSDQIHFFFAKLNCRLYRKANKASKLVSANRLFGDKSLTFNETYQDISELVYGAKLQPLDFKENAEQSRAAINKWVSNKTEGRITDVIPSEAINELTVLVLVNTIYFKGLWKSKFSPENTRKELFYKADGESCSASMMYQEGKFRYRRVAEGTQVLELPFKGDDITMVLILPKPEKSLAKVEKELTPEVLQEWLDELEEMMLVVHMPRFRIEDGFSLKEQLQDMGLVDLFSPEKSKLPGIVAEGRDDLYVSDAFHKAFLEVNEEGSEAAASTELEIAGRSLNPNRVTFKANRPFLVFIREVPLNTIIFMGRVANPCVK
notes: Made in Drosophila S2 cells (DES) on the S137A background; N-terminus printed as SPVDI---
B2: 13C.431 (other)
chain: B1 chain with I388A
notes: Made in Drosophila S2 cells (DES) on the S137A background; N-terminus printed as SPVDI---; primer codon CTC gives L
B3: LEAQ.501 (other)
chain: B1 chain with E385A, E387D, I388A, A389Q
B4: LEAQ.517 (other)
chain: B1 chain with E385S, I388A, A389Q
B5: LEAQ.515 (other)
chain: B1 chain with E385L, I388A, A389Q
B6: 13C.511 (other)
chain: B1 chain with E385A
B7: LEAQ.509 (other)
chain: B1 chain with E385A, E387V, I388A, A389Q
B8: LEAQ.518 (other)
chain: B1 chain with E385T, I388A, A389Q
B9: LEAQ.505 (other)
chain: B1 chain with E385A, E387Q, I388A, A389Q
B10: LEAQ.516 (other)
chain: B1 chain with E385F, I388A, A389Q
B11: LEAQ.507 (other)
chain: B1 chain with E385A, E387R, I388A, A389Q

Each binder was assayed against T3, thrombin (human, UniProt P00734 328-622) (assay: cell-based or functional assay).

Row | Binder | rsd. IIa catG; CA expt #7; stg1 conc 200 | rsd. IIa catG; CA expt #8; stg1 conc 200 | rsd. IIa hne; CA expt #7; stg1 conc 200 | rsd. IIa hne; CA expt #8; stg1 conc 200 | rsd. IIa no add; CA expt #7; stg1 conc 200 | rsd. IIa no add; CA expt #8; stg1 conc 200
1 | B1 | 5 % of activity without ATIII | 8 % of activity without ATIII | 3 % of activity without ATIII | 16 % of activity without ATIII | 5 % of activity without ATIII | 5 % of activity without ATIII
2 | B2 | 5 % of activity without ATIII | 19 % of activity without ATIII | 4 % of activity without ATIII | 25 % of activity without ATIII | 5 % of activity without ATIII | 14 % of activity without ATIII

What follows are binders tested against T4, factor Xa (human, UniProt P00742 41-179; P00742 235-488, limits assumed) (assay: cell-based or functional assay).
T4 sequence (P00742 41-179 limits assumed, form in doubt, chain 1 of 2): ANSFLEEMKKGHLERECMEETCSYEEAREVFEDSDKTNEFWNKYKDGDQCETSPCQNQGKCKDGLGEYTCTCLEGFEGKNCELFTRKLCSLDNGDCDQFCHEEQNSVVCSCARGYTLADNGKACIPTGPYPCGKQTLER
T4 sequence (P00742 235-488 limits assumed, form in doubt, chain 2 of 2): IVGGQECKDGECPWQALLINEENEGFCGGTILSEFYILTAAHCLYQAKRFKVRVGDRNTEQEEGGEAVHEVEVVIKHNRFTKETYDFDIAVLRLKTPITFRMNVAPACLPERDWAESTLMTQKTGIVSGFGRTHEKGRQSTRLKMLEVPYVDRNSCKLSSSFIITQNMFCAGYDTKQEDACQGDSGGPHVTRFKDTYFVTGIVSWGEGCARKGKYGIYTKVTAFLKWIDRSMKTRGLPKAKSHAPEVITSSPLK

Row | Binder | rsd. Xa catG; CA expt #7; stg1 conc 200 | rsd. Xa catG; CA expt #8; stg1 conc 200 | rsd. Xa hne; CA expt #7; stg1 conc 200 | rsd. Xa hne; CA expt #8; stg1 conc 200 | rsd. Xa no add; CA expt #7; stg1 conc 200 | rsd. Xa no add; CA expt #8; stg1 conc 200
3 | B1 | 3 % of activity without ATIII | 1 % of activity without ATIII | 2 % of activity without ATIII | 1 % of activity without ATIII | 4 % of activity without ATIII | 1 % of activity without ATIII
4 | B2 | 3 % of activity without ATIII | 1 % of activity without ATIII | 3 % of activity without ATIII | 2 % of activity without ATIII | 3 % of activity without ATIII | 2 % of activity without ATIII

The binders below were run against human thrombin (human, UniProt P00734 328-622) (assay: cell-based or functional assay).

Row | Binder | IC50 IIa/UFH (HCA #5) [nM] | IC50 IIa/UFH (HCA #6) [nM] | rsd IIa, no add (CA #51, stg 1 conc 200) [%] | rsd IIa, no add (CA #52, stg 1 conc 200) [%]
5 | B3 | 150 | 140 | 2 | 
6 | B4 |  | 65 |  | 4
7 | B5 |  | 110 |  | 5
8 | B6 | 150 | 130 | 2 | 5
9 | B7 | 16 | 18 | 1 | 1
10 | B8 |  | 50 |  | 4
11 | B9 | 18 |  | 0 | 
12 | B10 |  | 120 |  | 4
13 | B11 | 55 |  | 1 | 

Each binder was assayed against human factor Xa (human, UniProt P00742 41-179; P00742 235-488, limits assumed) (assay: cell-based or functional assay).
Sequence of human factor Xa (P00742 41-179 limits assumed, chain 1 of 2): as the sequence (P00742 41-179 limits assumed, form in doubt, chain 1 of 2) above
Sequence of human factor Xa (P00742 235-488 limits assumed, chain 2 of 2): as the sequence (P00742 235-488 limits assumed, form in doubt, chain 2 of 2) above

Row | Binder | IC50 fXa/UFH (HCA #5) [nM] | IC50 fXa/UFH (HCA #6) [nM] | rsd Xa, no add (CA #51, stg 1 conc 200) [%] | rsd Xa, no add (CA #52, stg 1 conc 200) [%]
14 | B3 | 15 | 19 | 1 | 
15 | B4 |  | 27 |  | 2
16 | B5 |  | 18 |  | 2
17 | B6 | 30 | 40 | -1 | 2
18 | B7 | 16 | 20 | -1 | 3
19 | B8 |  | 27 |  | 3
20 | B9 | 16 |  | 1 | 
21 | B10 |  | 25 |  | 3
22 | B11 | 55 |  | -2 | 

The binders below were run against T1, human neutrophil elastase (assay: cell-based or functional assay).

Row | Binder | rsd IIa, HNE (CA #51, stg 1 conc 200) [%] | rsd Xa, HNE (CA #51, stg 1 conc 200) [%] | rsd IIa, HNE (CA #52, stg 1 conc 200) [%] | rsd Xa, HNE (CA #52, stg 1 conc 200) [%]
23 | B3 | 3 | 1 |  | 
24 | B4 |  |  | 3 | 2
25 | B5 |  |  | 3 | 2
26 | B6 | 54 | -3 | 84 | 92
27 | B7 | 1 | -3 | 52 | 10
28 | B8 |  |  | 3 | 2
29 | B9 | 0 | 1 |  | 
30 | B10 |  |  | 9 | 3
31 | B11 | 2 | -3 |  | 

The binders below were run against T2, human neutrophil cathepsin G (assay: cell-based or functional assay).

Row | Binder | rsd IIa, catG (CA #51, stg 1 conc 200) [%] | rsd Xa, catG (CA #51, stg 1 conc 200) [%] | rsd IIa, catG (CA #52, stg 1 conc 200) [%] | rsd Xa, catG (CA #52, stg 1 conc 200) [%]
32 | B3 | 3 | -2 |  | 
33 | B4 |  |  | 2 | 1
34 | B5 |  |  | 3 | 1
35 | B6 | 1 | -2 | 5 | 1
36 | B7 | 0 | -1 | 6 | 1
37 | B8 |  |  | 2 | 1
38 | B9 | 0 | -2 |  | 
39 | B10 |  |  | 5 | 1
40 | B11 | 2 | -2 |  | 

What follows are binders tested against T4, factor Xa (assay: heparin cofactor assay, HCA expt #2; ATIII titrated on 10 nM fXa + 50 ug/ml UFH, chromogenic readout).
Method: (§1) After 3 minutes, the reactions were quenched with polybrene and chromogenic substrate S2238 (thrombin) or S2765 (fXa), and the initial rate of chromophore production (405 nm) recorded to obtain a measurement residual, uninhibited thrombin or factor Xa. IC50s were determined from plots of ATIII concentration vs. percent residual target enzyme activity.

Row | Binder | IC50 [nM]
41 | B1 | 45
42 | B2 | 45

The binders below were run against T3, thrombin (assay: heparin cofactor assay, HCA expt #2; ATIII titrated on 10 nM thrombin + 50 ug/ml UFH, chromogenic readout).
Method: as §1

Row | Binder | IC50 [nM]
43 | B1 | 460
44 | B2 | 550
